Experimental data as given in paper PMC4532469.

Legend:
[1] = target: recombinant human LTBP-2 central fragment LTBP-2C(H) (human); experiment: ELISA; solid phase binding assay, saturation curve: LTBP-2 or fragment coated on wells, increasing FGF-2 (0–30 ng/ml; 0–1.8 or 0–1.5 nM), 3 h at 37°C; BSA signal subtracted, bound FGF-2 from a standard ELISA curve; Kd by non-linear regression (GraphPad Prism) for a single binding site (Fig 3, Fig 4B, D, E)
[2] = target: LTBP-2 C(H) F2, sub-fragment of human LTBP-2C(H) (six tandem EGF-like motifs, EGFs 9-14) (human); experiment: as above

- Kd [1]: 1.02 nM
- Kd [2]: 1.03 nM
Substance: recombinant human fibroblast growth factor-2 (FGF-2) (from UniProt P09038 143-288) (ligand)
